Test results from article PMC6013234, “DENR–MCTS1 heterodimerization and tRNA recruitment are required for translation reinitiation” (PLoS Biology, 2018).

Biological target: T1, untagged full-length WT MCTS1 (human, UniProt Q9ULC4 1-181)
T1 construct: MCTS1, human, ORF in pETDuet under its own T7 promotor, untagged; also called MCT-1; source: E. coli BL21 (DE3), coexpressed with HIS-tagged DENR variants; in lysate for the pull-down, co-purified (NiNTA, SEC) for crystallization
T1 sequence (looked up): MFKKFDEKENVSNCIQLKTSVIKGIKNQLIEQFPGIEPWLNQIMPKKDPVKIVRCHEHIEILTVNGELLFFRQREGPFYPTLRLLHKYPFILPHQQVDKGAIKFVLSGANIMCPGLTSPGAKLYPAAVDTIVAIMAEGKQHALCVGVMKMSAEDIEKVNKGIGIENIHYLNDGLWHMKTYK
Assay: pull-down; N-terminally HIS-tagged DENR variants or fragments coexpressed with untagged MCTS1 in E. coli; DENR purified over a nickel column, copurifying MCTS1 detected in the eluate
Details: partners not purified

B1: NHis6-tagged DENR aas 24–51 (domain or fragment, human, UniProt O43583 24-51, looked up)
chain: DADYPLRVLYCGVCSLPTEYCEYMPDVA
notes: DENR, human, residues 24-51; also called DENR(aa24–51); DENR peptide; source: E. coli BL21 (DE3), coexpressed with untagged MCTS1; in lysate for the pull-down, purified (NiNTA, SEC) for crystallization; not shown: His6, N-terminal, kept
B1: binds.
